Here are results for two substances from IntAct's records for PubMed 19250911.

The experiment has as its target T1, nbr1_human NBR1 (UniProt Q14596).
T1 sequence: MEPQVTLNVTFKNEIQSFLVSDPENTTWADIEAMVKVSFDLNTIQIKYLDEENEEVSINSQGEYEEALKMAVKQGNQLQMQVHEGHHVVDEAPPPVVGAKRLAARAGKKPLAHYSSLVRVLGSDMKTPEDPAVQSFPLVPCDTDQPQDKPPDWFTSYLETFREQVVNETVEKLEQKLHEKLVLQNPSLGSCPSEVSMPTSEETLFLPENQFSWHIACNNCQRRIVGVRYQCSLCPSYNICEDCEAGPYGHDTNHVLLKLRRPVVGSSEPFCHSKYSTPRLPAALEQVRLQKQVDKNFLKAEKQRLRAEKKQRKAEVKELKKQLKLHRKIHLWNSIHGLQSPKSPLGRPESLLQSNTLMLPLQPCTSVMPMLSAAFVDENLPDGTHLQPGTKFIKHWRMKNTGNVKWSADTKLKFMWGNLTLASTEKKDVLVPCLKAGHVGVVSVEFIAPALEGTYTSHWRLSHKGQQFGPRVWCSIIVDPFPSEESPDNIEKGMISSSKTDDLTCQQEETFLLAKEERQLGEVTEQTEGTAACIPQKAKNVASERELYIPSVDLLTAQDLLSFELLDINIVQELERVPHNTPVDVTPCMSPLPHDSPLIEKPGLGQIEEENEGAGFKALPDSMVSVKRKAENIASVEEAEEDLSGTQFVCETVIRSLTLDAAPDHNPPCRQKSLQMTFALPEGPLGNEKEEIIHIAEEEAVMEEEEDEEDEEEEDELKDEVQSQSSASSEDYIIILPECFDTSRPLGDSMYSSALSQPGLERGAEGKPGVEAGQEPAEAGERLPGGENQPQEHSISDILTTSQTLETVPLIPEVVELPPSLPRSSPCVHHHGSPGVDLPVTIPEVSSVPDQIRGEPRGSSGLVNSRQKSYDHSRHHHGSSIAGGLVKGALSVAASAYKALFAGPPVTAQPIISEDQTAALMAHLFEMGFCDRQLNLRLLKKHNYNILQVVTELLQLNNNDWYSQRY

Take “Microtubule-associated protein 1 light chain 3 beta (Homo sapiens) (from UniProt Q9GZQ8) R70A”: the “effect of a mutation on the interaction” value is on record as “disrupting interaction”. For “Microtubule-associated protein 1 light chain 3 beta (Homo sapiens) (from UniProt Q9GZQ8) R10A;R11A” the value was “decreasing interaction”.
